Test results as given in patent US20260035456A1 (SHANGHAI JEYOU PHARMACEUTICAL, published 2026).

T1: biotin-labeled human ADM (human, not fully specified; biotin label (named human ADM-C-biotin in Example 1.4; position of the biotin not stated for the other lots))
T1 construct: Synthetic peptide; also called human ADM-C-biotin; hADM-Biotin
T1 peptide: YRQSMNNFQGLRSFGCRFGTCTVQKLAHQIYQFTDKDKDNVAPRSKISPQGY

T2: biotin-labeled mouse ADM (mouse, not fully specified; biotin label (named mouse ADM-C-biotin in Example 1.4; position of the biotin not stated for the other lots))
T2 construct: Synthetic peptide; also called mouse ADM-C-biotin; mADM-Biotin
T2 peptide: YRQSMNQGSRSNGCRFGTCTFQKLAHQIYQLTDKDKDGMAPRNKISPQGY

B1: Ab2004.Am36 (IgG1 antibody) (antibody, V domains shown)
VH: QVQLVQSGAEVKKPGASVKVSCKASGYTFTQYGIAWVRQAPGQGLEWMGWISAYQGNTNYAQKLQGRVTMTRDTSTSTAYMELRSLRSDDTAVYYCAREGRWGGSFNIWGQGTMVTVSS
VL: DIQMTQSPSSLSASVGDRVTITCRASQGISSYLAWYQQKPGKAPKLLIYDASNVDTGVPSRFSGSGSGTDFTFTISSLQPEDIATYYCQQYDNLPLTFGGGTKVEIKR
notes: Expressed in CHO cells, human IgG1/kappa
B2: Ab2004.Am31 (IgG1 antibody) (antibody, V domains shown)
VH: QVQLVQSGAEVKKPGASVKVSCKASGYTFTQYGIAWVRQAPGQGLEWMGWISAYQGNTNYAQKLQGRVTMTRDTSTSTAYMELRSLRSDDTAVYYCAREGRWGGSFNIWGQGTMVTVSS
VL: DIQMTQSPSSLSASVGDRVTITCRASEGISEYLAWYQQKPGKAPKLLIYDASNLETGVPSRFSGSGSGTDFTFTISSLQPEDIATYYCQQYDNLPLTFGGGTKVEIKR
notes: as for B1
B3: Ab2004.Am32 (IgG1 antibody) (antibody, V domains shown)
VH: QVQLVQSGAEVKKPGASVKVSCKASGYTFTQYGIAWVRQAPGQGLEWMGWISAYQGNTNYAQKLQGRVTMTRDTSTSTAYMELRSLRSDDTAVYYCAREGRWGGSFNIWGQGTMVTVSS
VL: DIQMTQSPSSLSASVGDRVTITCRAAEGIGSYLAWYQQKPGKAPKLLIYDASNLETGVPSRFSGSGSGTDFTFTISSLQPEDIATYYCQQYDNLPLTFGGGTKVEIKR
notes: as for B1
B4: Ab2004.Am33 (IgG1 antibody) (antibody, V domains shown)
VH: QVQLVQSGAEVKKPGASVKVSCKASGYTFTSYGISWVRQAPGQGLEWMGWISPYSGNTNYAQKLQGRVTMTRDTSTSTAYMELRSLRSDDTAVYYCAREGRWGGSFNIWGQGTMVTVSS
VL: DIQMTQSPSSLSASVGDRVTITCRASEGISEYLAWYQQKPGKAPKLLIYDASNLETGVPSRFSGSGSGTDFTFTISSLQPEDIATYYCQQYDNLPLTFGGGTKVEIKR
notes: as for B1
B5: Ab2004.Am34 (IgG1 antibody) (antibody, V domains shown)
VH: QVQLVQSGAEVKKPGASVKVSCKASGYTFTHYGIAWVRQAPGQGLEWMGWISAYQGNTNYAQKLQGRVTMTRDTSTSTAYMELRSLRSDDTAVYYCAREGRWGGSFNIWGQGTMVTVSS
VL: DIQMTQSPSSLSASVGDRVTITCRASQGISSYLAWYQQKPGKAPKLLIYDVSILDAGVPSRFSGSGSGTDFTFTISSLQPEDIATYYCQQYDNLPLTFGGGTKVEIKR
notes: as for B1
B6: Ab2004.Am35 (IgG1 antibody) (antibody, V domains shown)
VH: QVQLVQSGAEVKKPGASVKVSCKASGYTFTQYGIAWVRQAPGQGLEWMGWISAYQGNTNYAQKLQGRVTMTRDTSTSTAYMELRSLRSDDTAVYYCAREGRWGGSFNIWGQGTMVTVSS
VL: DIQMTQSPSSLSASVGDRVTITCRASQGISSYLAWYQQKPGKAPKLLIYDVSILDAGVPSRFSGSGSGTDFTFTISSLQPEDIATYYCQQYDNLPLTFGGGTKVEIKR
notes: as for B1

Legend:
biotin-labeled human ADM = molecular target: T1, biotin-labeled human ADM; test: BLI (Octet RED96e), as in Example 3
Procedure: (§1) The affinity of antibodies 2004hz00, 2004hz97, and 2004hz99 for biotin-labeled human and mouse ADM (human ADM Cat. No. 894757, mouse ADM Cat. No. 894758, synthesized by GLBiochem) was determined by adopting Octet RED96e (Fortebio). The antigens and the antibodies were all diluted with 1× PBST (1× PBS: Sangon, B548117-0500; 0.02% Tween 20: sigma, P1379), the concentration of the antibody used was 100 nM, and the concentration of the antigen used was 2 μg/mL. The candidate antibody sample was added to a 96-well plate (Greiner bio-one, 655209) at 200 μL/well, the software parameters were set, the temperature was 30° C., and the standard kinetic signal was collected at a frequency of 5.0 Hz; and an SA sensor (Fortebio, Cat. No. 18-5020) was pre-wetted with 1× PBST for 10 min and then tested on a machine.
(§2) The equilibrium dissociation constants (KD) of the antibodies were calculated by measuring the association rates (Kon) and the dissociation rates (Koff) of the antigen-antibody in a 1:1 binding manner by adopting the Data Analysis 12.0 software from Fortebio.
(§3) Similar to Example 3, the affinity of the affinity-matured antibodies Ab2004.Am31 -Ab2004.Am40 and the parent antibody Ab2004.Am01 for human and mouse ADM was further determined, respectively, and the results are shown in Table 10. It can be seen from Table 10 […].

biotin-labeled mouse ADM = molecular target: T2, biotin-labeled mouse ADM; test: BLI (Octet RED96e), as in Example 3
Procedure: as §1, §2, §3

| Binder | Kd (biotin-labeled human ADM) [nM] | Response value (biotin-labeled human ADM) | koff (biotin-labeled human ADM) [s⁻¹] | kon (biotin-labeled human ADM) [M⁻¹ s⁻¹] | Kd (biotin-labeled mouse ADM) [nM] | Response value (biotin-labeled mouse ADM) | koff (biotin-labeled mouse ADM) [s⁻¹] | kon (biotin-labeled mouse ADM) [M⁻¹ s⁻¹] |
| --- | --- | --- | --- | --- | --- | --- | --- | --- |
| B1 | 0.291 | 2.7 | 0.000108 | 372000 | 0.518 | 2.75 | 0.000221 | 427000 |
| B2 | 0.288 | 2.64 | 0.000141 | 491000 | 0.412 | 2.81 | 0.000221 | 537000 |
| B3 | 0.34 | 2.53 | 0.000146 | 430000 | 0.474 | 2.76 | 0.000219 | 461000 |
| B4 | 0.316 | 2.63 | 0.000214 | 676000 | 0.474 | 2.8 | 0.000365 | 769000 |
| B5 | 0.154 | 2.61 | 6.81e-05 | 444000 | 0.451 | 2.78 | 0.000222 | 492000 |
| B6 | 0.281 | 1.96 | 0.000119 | 423000 | 0.452 | 2.74 | 0.000206 | 456000 |
